Measured values taken from patent CN114685656A (鲁南制药集团股份有限公司, dated 2022).

Key:
[1] = molecular target: 人SIRPα受体 on CHO cells (CHO-huSIRPα) (human) (UniProt P78324); assay: flow cytometry on CHO-huSIRPα cells, PE anti-mouse IgG Fc
[2] = molecular target: 猴SIRPα受体 on CHO cells (CHO-cyno-SIRPα) (monkey (cyno)); assay: flow cytometry on CHO-cyno-SIRPα cells, PE anti-mouse IgG Fc
重组hSIRPα [3] = molecular target: T1, 重组hSIRPα (human, UniProt P78324 31-370, limits assumed); assay: competition ELISA on coated hSIRPα (1 μg/ml) against biotinylated CD47-Fc (6 μg/ml)
T1 construct: also called SIRPα蛋白; SIRPα抗原

重组hu-SIRPα-his = 重组hu-SIRPα-his (human, UniProt P78324 31-370, limits assumed); assay: ELISA on coated hu-SIRPα-his (0.5 μg/ml), anti-mouse IgG-HRP
重组hSIRPg-his [4] = molecular target: T2, 重组hSIRPg-his (human, UniProt Q9P1W8 29-360, limits assumed); assay: competition ELISA on coated hSIRPg-his (1 μg/ml) against biotinylated CD47-Fc (6 μg/ml)
T2 construct: also called sirp-γ

[5] = molecular target: 人SIRPα受体 on CHO cells (CHO-huSIRPα) (human) (UniProt P78324); assay: flow cytometry, hybridoma supernatant on CHO-huSIRPα cells, PE anti-mouse IgG Fc
[6] = molecular target: 猴SIRPα受体 on CHO cells (CHO-cyno-SIRPα) (monkey (cyno)); assay: flow cytometry, hybridoma supernatant on CHO-cyno-SIRPα cells, PE anti-mouse IgG Fc
重组hSIRPα [7] = molecular target: T1, 重组hSIRPα; assay: SPR (Biacore T200), antibody captured on Protein A chip, SIRPα protein as analyte, 1:1 Langmuir fit
重组hSIRPg-his [8] = molecular target: T2, 重组hSIRPg-his; assay: ELISA on coated hSIRPg-his (1 μg/ml), anti-mouse IgG-HRP

MFI [1] [MFI] | MFI [2] [MFI] | IC50 (重组hSIRPα [3]) [mg/L] | EC50 (重组hu-SIRPα-his) [mg/L] | IC50 (重组hSIRPg-his [4]) [mg/L] | MFI [5] [MFI] | MFI [6] [MFI] | Kd (重组hSIRPα [7]) [nM] | binding result (重组hSIRPg-his [8]) | Molecule
86.6 | 76.4 |  |  |  |  |  |  |  | mIgG (antibody)
 |  | 0.121 | 0.0225 |  |  |  |  |  | SE5A5 (antibody)
 |  |  |  | 0.0394 |  |  |  |  | Kwar23 (antibody, V domains shown) VH: EVQLQQSGAELVKPGASVKLSCTASGFNIKDYYIHWVQQRTEQGLEWIGRIDPEDGETKYAPKFQDKATITADTSSNTAYLHLSSLTSEDTAVYYCARWGAYWGQGTLVTVSS VL: QIVLTQSPAIMSASPGEKVTLTCSASSSVSSSYLYWYQQKPGSSPKLWIYSTSNLASGVPARFSGSGSGTSYSLTISSMEAEDAASYFCHQWSSYPRTFGAGTKLELK
 |  | 0.248 | 0.0192 |  | 9270 | 5000 |  |  | 36D6 (antibody, V domains shown, also called 抗SIRPα抗体36D6) VH: EVQLQESGPELKKPGETVKISCKASGYTFTKYGMNWVKQAPGKGLKWLAWINTDTGEAKYSDDFKGRFAFSLETSASIVYLQINNLKNEDTATYFCARGESYSNYVRFVYWGQGTTVTVSS VL: DIVMTQSHKFMSTSVGDRVSITCKASQDVNTAVAWYQQKAGHSPKLLIYWTSTRHTGVPDRFTGSGSGTDYTLTISSVQAEDLTLYYCQQHYSTPWTFGGGTKLEIK
 |  | 0.121 | 0.00736 | 0.196 | 13600 | 6980 |  |  | 52B3 (antibody, V domains shown, also called 抗SIRPα抗体52B3) VH: EVQLQQSGAELVRSGASVKMSCKASDYTFTSYNLHWVKQTPGQGLEWIGYIYPGNGNTKYSQKFKGKATLTADTSSSTAYMQISSLTSEDSAVYFCTRNYDYYFYTMGYWGQGTTVTVSS VL: DIVLTQSPKFMSTSVGDRVNITCKASQDVCTAVAWYQQKPGQSPKLLIYSASYRYTGVPDRFTGSGSRTDFTFTISSVQAEDLAVYYCQQHYSTPLTFGAGTKLELK
 |  | 0.0633 | 0.00546 |  | 18500 | 9230 | ~0.01 |  | 57B10 (antibody, V domains shown, also called 抗SIRPα抗体57B10) VH: EVKLQESGAELVRSGASVKMSCKASGYTFTSYNMHWIKQTPGQGLEWIGYIYPGNGATNYNQKFKGKATLTADTSSSTAYMQISSLTSEDSAVYFCARNYDYYFYTMDYWGQGTTVTVSS VL: DIVLTQSTKFMSTSVGDRVSITCKASQDVSTAVAWYQQKPGQSPKLLIYSASYRYTGVPDRFTGSGSRTDFTFTISSVQAEDLAVFYCQQHFSAPLTFGAGTKLELK
 |  | 0.0653 | 0.00587 |  | 17200 | 7570 | ~0.01 | no binding | 40F3 (antibody, V domains shown, also called 抗SIRPα抗体40F3) VH: QVQLQQPGAELGKPGASVKLSCKASGYTFSSYYIYWLKQRPGQGLEWIGGINPSNDDTHLTEKFKSKATLIADRSSSTAYIQLSSLTSEDSAVYYCTRSYYANSWFAYWGQGTLVTVSA VL: DIVLTQSPLSLPVSLGDQASISCRSSQTIVHSNGNTYLAWYLQKPGQSPKLLIYKVSNRFSGVPDRFSGSGSGTEFTLKISRVEAEDLGVYYCFQGSHVPYTFGGGTKLEIK
 |  | 0.15 | 0.0235 |  | 9520 | 4560 |  |  | 36G4 (antibody, V domains shown, also called 抗SIRPα抗体36G4) VH: EVQLVESGGGLVQPGGSLKLSCAASGFTFSNYGMSWVRQTPDKRLELVATINSNGGDTSYPDSVRGRFTISRDNAKNTLYLQMSSLKSEDTAMYYCTRGGWSWFAYWGQGTLVTVSA VL: DIVLTQSPTSLAVSLGQRATISCRASESADSYGNSYMNWYQQKPGQPPKLLIYLASNLESGVPARFSGSGSRTDFTLTIDPVEADDAATYYCQQINEDPYTFGGGTKLEIK
